Test results taken from patent US12605539B2, “Methods and systems for delivering drugs through skin of a body” (PASSPORT TECHNOLOGIES, INC., priority 2019, dated 2026).

Assays:
[1] = Blood concentration of long-acting peptide (Semaglutide) after microporation patch, Sub Q or oral administration; format: in vivo, hairless Guinea pigs
Source text: Table 1 below provides data of three groups of microporation values used to create pathways in the skin in hairless Guinea pigs before applying the patch 102 containing a long-acting peptide once weekly, for example Semaglutide. Table 2 below provides data of six (6) groups of drug administration: three (3) groups for the patch 102, one (1) group for oral administration of the long-acting peptide, and two (2) groups for injected administration of the long-acting peptide.
Groups 1-3 in Tables 1 and 2 correspond to combinations of patches 102 and the microporation parameters for a particular administration. For example, the group 1 microporation parameters of Table 1 apply in conjunction with the administration of the patch 102 according to the parameters in Group 1 of Table 2. Accordingly, the patch 102 of group 1 has the nonwoven matrix, water holding material thickness of 38 μm, water holding material weight of 12 g/m^2, and WHC of […]. The patch 102 of group 1 includes a drug of 1 mg and a total solid weight of 3.25 mg with an area of 0.5 cm^2. This patch 102 is applied to an area of the skin having 200 pathways created according to the group 1 microporation parameters, where the energy applied to the microporation device is 5.2 mJ/filament, the filaments 200 are made from stainless steel and have a treated area of 10% per square centimeter of skin, where the filaments 200 treat an area of 0.5 cm^2. Similarly, group 2 of the patch 102 parameters applies to group 2 of the microporation parameters and group 3 of the patch 102 parameters applies to group 3 of the microporation parameters.
The graph 1000 includes the concentration of the long-acting peptide in nanograms/milliliter (ng/mL) along the y-axis and time in hours (hr) along the x-axis. […] The line 1002 represents the group 1 microporation parameters and the group 1 patch 102 parameters. The line 1004 represents the group 2 microporation parameters and the group 2 patch 102 parameters. The line 1006 represents the group 3 microporation parameters and the group 3 patch 102 parameters. Each of the three lines 1002, 1004, and 1006 follow the same general trend. For each of the groups 1-3 of parameters, the concentrations of the long-acting peptide generally increase to a maximum concentration relatively quickly before gradually lessening, finally reaching a concentration of 0.
The graph 1020 includes the concentration of the long-acting peptide in nanograms/milliliter (ng/mL) along the y-axis and time in hours (hr) along the x-axis. […] The line 1022 represents the group 4 injected drug. The line 1024 represents the group 5 injected drug. The line 1026 represents the group 6 […] drug. Each of the lines 1022 and 1024 follow the same general trend, rising to a highest level of concentration before gradually falling and approaching a concentration level of 0. […] The parameters of group 5 are shown by line 1024 to have a higher concentration level spike for the duration of the bioavailability of the long-acting polypeptide in the body as compared to the parameters of group 4 shown by line 1022.
The graph 1040 is zoomed out view of the graph 1000, giving a higher level view of the relationships of the lines 1002, 1004, and 1006. Similarly, the graph 1060 is a zoomed out view of the graph 1020, showing that the line 1026 (oral consumption of the long-lasting peptide) hovers around a concentration of 10 ng/mL and is not 0, as it appears from the graph 1020.
Based on the graphs 1000, 1020, 1040, and 1060, the area under the curve for each of groups 1-6 is shown below in Table 3: […]

[2] = Blood concentration of long-acting protein (Etanercept) after patch with or without microporation or Sub Q; format: in vivo, rats
Source text: Table 4 below provides data of one group (group 1) of a patch 102 containing a long-acting protein, for example Etanercept, applied without any microporation, three groups (groups 2-4) of microporation values for use with patches 102, and one group (group 5) of injected administration of the long-acting protein. Table 6 below provides details of the components of the patch or drug formulation administered according to the groups 1-5.
The graph 1100 includes the concentration of the long-acting protein in nanograms/milliliter (ng/mL) along the y-axis and time in hours (hr) along the x-axis. […] The line 1102 represents the group 1 patch 102 with no microporation. The line 1104 represents the group 2 microporation parameters and the group 2 patch 102 parameters. The line 1106 represents the group 3 microporation parameters and the group 3 patch 102 parameters. The line 1108 represents the group 4 microporation parameters and the group 4 patch 102 parameters. The line 1110 represents the injected long-acting protein. Each of the three lines 1104, 1106, and 1108 follow the same general trend. For each of the groups 2-4 of parameters, the concentrations of the long-acting protein generally increase to a maximum concentration relatively quickly before gradually lessening, finally reaching a concentration of 0. The parameters of groups 3 and 4 are shown by line 1106 and 1108 to have the highest concentration level spike while the group 4 parameters result in the higher long term concentration. The parameters of group 2 are shown by line 1104 to have a generally lower concentration levels throughout as compared to the groups 3 and 4 parameters. The group 1 and group 5 administrations are lower than all of the group 2-4 administrations. Thus, for the long-acting protein, the patch administration at skin locations treated with microporation result in better bioavailabilities than even the injected administration of the drug, as detailed in Table 7 below. The graphs 1100 and 1120 also show what effects the additional components in the drug formulation (for example, sucrose, urea, and so forth) may have on the bioavailability and blood concentrations of the long-acting protein in rats.
Based on the graphs 1100 and 1120, the area under the curve for each of groups 1-5 is shown above in Table 7. […] The administrations using the patches 102 with the different microporation parameters are shown to result in the greatest concentration levels of the drug available for the longest durations.

[3] = Blood concentration of long-acting protein (Etanercept), patch matrix comparison (Tables 8-10, FIG. 12); format: in vivo, rats; conditions: for peak concentration: 5.0 mg + sucrose 10 mg, 400 pores, 5.2 mJ/filament
Source text: Table 8 below provides data of two groups (groups 1 and 2) of microporation values for use with a patch 102 containing a long-acting protein, for example Etanercept. Table 10 below provides details of the components of the patch or drug formulation administered according to the groups 1 and 2. As shown, both groups have the same drug formulation of the long-acting protein and sucrose in the same quantities.
The graph 1200 includes the concentration of the long-acting protein in nanograms/milliliter (ng/mL) along the y-axis and time in hours (hr) along the x-axis. […] The line 1202 represents the group 1 patch 102 with microporation parameter according to Table 8 and patch 102 parameters according to Table 9. The line 1204 represents the group 2 patch 102 with microporation parameter according to Table 8 and patch 102 parameters according to Table 9. The two lines 1202 and 1204 follow different trends. The line 1202 spikes quickly to a peak of above 800 ng/mL and then remains generally between 500 and 700 ng/mL until at least about 70 hours. […] This highlights the effects that the patch 102 parameters can have on the administration of the drug formulation.

[4] = group 1: patch 5.0 mg + sucrose 5 mg, without microporation
[5] = group 2: patch 5.0 mg + sucrose 5 mg, 400 pores, 5.2 mJ/filament
[6] = group 3: patch 5.0 mg + sucrose 5 mg + urea 5 mg, 400 pores, 5.2 mJ/filament
[7] = group 4: patch 5.0 mg + sucrose 5 mg + disodium citrate 5 mg, 400 pores, 5.2 mJ/filament

For `CC[C@H](C)[C@H](NC(=O)[C@H](Cc1ccccc1)NC(=O)[C@H](CCC(=O)O)NC(=O)[C@H](CCCCNC(=O)COCCOCCNC(=O)COCCOCCNC(=O)CC[C@H](NC(=O)CCCCCCCCCCCCCCCCC(=O)O)C(=O)O)NC(=O)[C@H](C)NC(=O)[C@H](C)NC(=O)[C@H](CCC(N)=O)NC(=O)CNC(=O)[C@H](CCC(=O)O)NC(=O)[C@H](CC(C)C)NC(=O)[C@H](Cc1ccc(O)cc1)NC(=O)[C@H](CO)NC(=O)[C@H](CO)NC(=O)[C@@H](NC(=O)[C@H](CC(=O)O)NC(=O)[C@H](CO)NC(=O)[C@@H](NC(=O)[C@H](Cc1ccccc1)NC(=O)[C@@H](NC(=O)CNC(=O)[C@H](CCC(=O)O)NC(=O)C(C)(C)NC(=O)[C@@H](N)Cc1cnc[nH]1)[C@@H](C)O)[C@@H](C)O)C(C)C)C(=O)N[C@@H](C)C(=O)N[C@@H](Cc1c[nH]c2ccccc12)C(=O)N[C@@H](CC(C)C)C(=O)N[C@H](C(=O)N[C@@H](CCCNC(=N)N)C(=O)NCC(=O)N[C@@H](CCCNC(=N)N)C(=O)NCC(=O)O)C(C)C` [Semaglutide], the BA ([1]; group 1: patch 1 mg (2 mg/cm^2), 0.5 cm^2, 200 pores, 5.2 mJ/filament) was 63.6%, the BA ([1]; group 2: patch 2 mg (2 mg/cm^2), 1.0 cm^2, 400 pores, 5.2 mJ/filament) was 47.0% and the BA ([1]; group 3: patch 4 mg (2 mg/cm^2), 2.0 cm^2, 800 pores, 5.2 mJ/filament) was 31.8%. The BA ([1]; group 4: Sub Q 0.5 mg) was 81.8%, the BA ([1]; group 5: Sub Q 1.0 mg) was 100.0% and the BA ([1]; group 6: Oral 2.0 mg) was 0.0%.

Molecule Etanercept has an AUC [2, 4] of 0.172 µg·h/mL, a BA [2, 4] of 0.0% and a Cmax [2, 4] of 9.6 ng/mL. The AUC [2, 5] was 208.5929 µg·h/mL, the BA [2, 5] was 94.3% and the Cmax [2, 5] was 5189.0 ng/mL. It also gave an AUC [2, 6] of 604.0884 µg·h/mL, a BA [2, 6] of 99.4% and a Cmax [2, 6] of 16578.6 ng/mL. For the same molecule, the AUC [2, 7] was 712.8251 µg·h/mL, the BA [2, 7] was 117.2% and the Cmax [2, 7] was 16982.4 ng/mL. The AUC ([2]; group 5: Sub Q 1.0 mg) was 121.5723 µg·h/mL, the BA ([2]; group 5: Sub Q 1.0 mg) was 100.0% and the Cmax ([2]; group 5: Sub Q 1.0 mg) was 1298.7 ng/mL. For the same molecule, the peak concentration ([3]; group 1: matrix 38 μm, 12 g/m^2, WHC 4 mg/cm^2) was “above 800 ng/mL”, the “concentration at about 70 hours” value ([3]; group 2 (WHC 30 mg/cm^2)) was “below 100 ng/mL” and the “time of peak concentration” value ([3]; group 2 (WHC 30 mg/cm^2)) was “about 32 hours”. For the same molecule, the peak concentration ([3]; group 2: matrix 336 μm, 50 g/m^2, WHC 30 mg/cm^2) was “about 275 ng/mL”.
